For test [1], the target named is T1, Anti-CD28 Fab (SEQ ID NOs: 696, 697).
T1 construct: In the phage ELISA the Fab was biotinylated and captured on neutravidin coated plates
Nature of the test: phage binding ELISA; biotinylated anti-CD28 Fab on neutravidin plate, clonal phage supernatant, anti-M13 HRP detection. For orientation: In an ELISA, binding on a coated surface is turned into a signal by an enzyme label.
T1 sequence (VH, as listed by the source, chain 1 of 2): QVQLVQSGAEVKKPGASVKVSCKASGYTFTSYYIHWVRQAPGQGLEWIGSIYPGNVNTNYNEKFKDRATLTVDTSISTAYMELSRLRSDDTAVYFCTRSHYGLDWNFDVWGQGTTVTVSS
T1 sequence (VL, as listed by the source, chain 2 of 2): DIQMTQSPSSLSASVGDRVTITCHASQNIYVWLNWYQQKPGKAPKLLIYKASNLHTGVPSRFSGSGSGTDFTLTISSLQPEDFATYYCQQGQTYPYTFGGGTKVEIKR
Description: (§1) After panning, phage infected bacteria were plated out and colonies picked into 96 well blocks. Clonal phage was then amplified and separated from bacterial cells via centrifugation.
(§2) Clonal phage were harvested as crude supematants and screened via standard ELISAs. […] Prior to the addition of clonal phage, wells were incubated with blocking buffer and CD28 antigen or blocking buffer alone. Without washing or aspirating, clonal phage supematants were then added to the wells and incubated for a short time. Wells were then washed followed by detection of bound phage using a horse radish conjugated anti-M13 antibody. Clonal phage of interest were then sent for sequence analysis.

Test [2] shares this target. The experiment in a line: phage binding ELISA; Fab-coated wells pre-incubated with CD28 antigen as competitor, anti-M13 HRP detection.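 Note: crude clonal phage supernatants from panned colonies added to wells after blocking buffer plus CD28 treatment, bound phage measured after a brief incubation and washing.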
Target sequence in this assay (VH, as listed by the source, chain 1 of 2): as the sequence (VH, as listed by the source, chain 1 of 2) above
Target sequence in this assay (VL, as listed by the source, chain 2 of 2): as the sequence (VL, as listed by the source, chain 2 of 2) above
Description: as §1, §2
Test [3] concerns the target T2, Anti-CD28 Fab (SEQ ID NOs: 696, 697).
T2 construct: In the phage ELISA the Fab was biotinylated and captured on neutravidin coated plates
The experiment in a line: phage ELISA; Fab-coated wells pre-incubated with CD28 antigen as competitor, anti-M13-HRP detection.
T2 sequence (VH, as listed by the source, chain 1 of 2): as the sequence (VH, as listed by the source, chain 1 of 2) above
T2 sequence (VL, as listed by the source, chain 2 of 2): as the sequence (VL, as listed by the source, chain 2 of 2) above
Description: as §1, §2

Test [4] shares this target. Nature of the test: phage ELISA; biotinylated anti-CD28 Fab on neutravidin plates, bound phage detected with anti-M13-HRP.
Target sequence in this assay (VH, as listed by the source, chain 1 of 2): as the sequence (VH, as listed by the source, chain 1 of 2) above
Target sequence in this assay (VL, as listed by the source, chain 2 of 2): as the sequence (VL, as listed by the source, chain 2 of 2) above
Description: as §1, §2
The target in test [5] is T3, Anti-CD28 Fab (SEQ ID NOs: 696, 697).
T3 construct: In the phage ELISA the Fab was biotinylated and captured on neutravidin coated plates
Nature of the test: phage binding ELISA; Fab-coated wells pre-incubated with CD28 antigen as competitor, phage detected with anti-M13 HRP.
T3 sequence (VH, as listed by the source, chain 1 of 2): as the sequence (VH, as listed by the source, chain 1 of 2) above
T3 sequence (VL, as listed by the source, chain 2 of 2): as the sequence (VL, as listed by the source, chain 2 of 2) above
Description: as §1, §2

Test [6] has the same target. The experiment in a line: phage binding ELISA; biotinylated anti-CD28 Fab on neutravidin plate, clonal phage detected with anti-M13 HRP.
Target sequence in this assay (VH, as listed by the source, chain 1 of 2): as the sequence (VH, as listed by the source, chain 1 of 2) above
Target sequence in this assay (VL, as listed by the source, chain 2 of 2): as the sequence (VL, as listed by the source, chain 2 of 2) above
Description: as §1, §2

Where no end group is shown, it is not given here.

The values below come from patent publication US20260242478A1 (published 2026).

B1: Phage-984 (peptide)
peptide: YCQGHLPQYVEKCL
modifications: cysteine pairing not given here; also: displayed fused to phage pIII protein, fusion end and linker not given here
notes: Clonal phage of the peptide-87 library, tested as crude supernatant; not shown: fused to the pIII filament protein of the bacteriophage
Regarding B1, the “Anti-CD28 Fab signal (phage binding ELISA)” value in test [1] amounted to 1.57. In test [2], the “Anti-CD28 Fab signal in the presence of CD28” value came to 0.08.

B2: Phage-990 (peptide)
peptide: YCDGHSEVYMSKCL
modifications: cysteine pairing not given here; also: displayed fused to phage pIII protein, fusion end and linker not given here
notes: as for B1
B2: the “Anti-CD28 Fab signal (phage binding ELISA)” value in test [1] stood at 1.55. Further, the “Anti-CD28 Fab signal in the presence of CD28” value in test [2] was 0.06.
In the case of YCEGHLPMYFLKCM (Tested as clonal phage supernatant) [Phage-720], the “Phage binding ELISA, Anti-CD28 Fab signal in the presence of CD28” value in test [3] was 0.06. For the same molecule, the “Phage binding ELISA, Anti-CD28 Fab signal” value in test [4] turned out to be 1.97.

B3: Phage-986 (peptide)
peptide: YCDGHSQEYMAHCL
modifications: cysteine pairing not given here; also: displayed fused to phage pIII protein, fusion end and linker not given here
notes: as for B1
As for B3, in test [1], the “Anti-CD28 Fab signal (phage binding ELISA)” value is 1.56. Further, in test [2], the “Anti-CD28 Fab signal in the presence of CD28” value stood at 0.07.
Regarding YCEGHAAEYMMKCL (Tested as clonal phage supernatant) [Phage-713], the “Phage binding ELISA, Anti-CD28 Fab signal in the presence of CD28” value in test [3] amounted to 0.07. The “Phage binding ELISA, Anti-CD28 Fab signal” value in test [4] turned out to be 1.99.

B4: Phage-1077 (peptide)
peptide: YCDGHLQEYMQKCL
modifications: cysteine pairing not given here; also: displayed as fusion to phage pIII, linker not given here
On to B4, for which the “Anti-CD28 Fab signal in the presence of CD28 (phage binding ELISA)” value in test [5] came out at 0.06. Besides, the “Anti-CD28 Fab signal (phage binding ELISA)” value in test [6] worked out at 1.38.
With YCDGHSDQYMWKCL (Tested as clonal phage supernatant) [Phage-711], the “Phage binding ELISA, Anti-CD28 Fab signal in the presence of CD28” value in test [3] is 0.11. Moreover, the “Phage binding ELISA, Anti-CD28 Fab signal” value in test [4] stood at 2.

B5: Phage-993 (peptide)
peptide: YCAGHDQQYMEKCL
modifications: cysteine pairing not given here; also: displayed fused to phage pIII protein, fusion end and linker not given here
notes: as for B1
B5: the “Anti-CD28 Fab signal (phage binding ELISA)” value in test [1] is 1.55. Also, in test [2], the “Anti-CD28 Fab signal in the presence of CD28” value amounted to 0.23.
Take YCDGHLPIYMTQCL (Tested as clonal phage supernatant) [Phage-721]: the “Phage binding ELISA, Anti-CD28 Fab signal in the presence of CD28” value in test [3] turned out to be 0.08. Besides, the “Phage binding ELISA, Anti-CD28 Fab signal” value in test [4] came to 1.97.

B6: Phage-995 (peptide)
peptide: YCAGHNAQYMSKCL
modifications: cysteine pairing not given here; also: displayed fused to phage pIII protein, fusion end and linker not given here
notes: as for B1
Turning to B6, in test [1], the “Anti-CD28 Fab signal (phage binding ELISA)” value came out at 1.55. For the same molecule, the “Anti-CD28 Fab signal in the presence of CD28” value in test [2] was 0.05.

B7: Phage-983 (peptide)
peptide: YCDGHLPMYMKKCL
modifications: cysteine pairing not given here; also: displayed fused to phage pIII protein, fusion end and linker not given here
notes: as for B1
For the molecule B7, the “Anti-CD28 Fab signal (phage binding ELISA)” value in test [1] stood at 1.57. Besides, the “Anti-CD28 Fab signal in the presence of CD28” value in test [2] is 0.1.

B8: Phage-996 (peptide)
peptide: YCDGHTSEYMTKCL
modifications: cysteine pairing not given here; also: displayed fused to phage pIII protein, fusion end and linker not given here
notes: as for B1
On to B8, for which, in test [1], the “Anti-CD28 Fab signal (phage binding ELISA)” value is 1.54. In addition, the “Anti-CD28 Fab signal in the presence of CD28” value in test [2] came out at 0.06.
For the molecule YCDGHLGIYMTKCL (Tested as clonal phage supernatant) [Phage-718], in test [3], the “Phage binding ELISA, Anti-CD28 Fab signal in the presence of CD28” value was 0.08. In addition, in test [4], the “Phage binding ELISA, Anti-CD28 Fab signal” value came to 1.98.

B9: Phage-989 (peptide)
peptide: YCAGHSEEYMDKCL
modifications: cysteine pairing not given here; also: displayed fused to phage pIII protein, fusion end and linker not given here
notes: as for B1
For the molecule B9, the “Anti-CD28 Fab signal (phage binding ELISA)” value in test [1] stood at 1.55. Moreover, the “Anti-CD28 Fab signal in the presence of CD28” value in test [2] was determined as 0.05.

B10: Phage-1075 (peptide)
peptide: YCDGHAPEYIQKCL
modifications: cysteine pairing not given here; also: displayed as fusion to phage pIII, linker not given here
Take B10: the “Anti-CD28 Fab signal in the presence of CD28 (phage binding ELISA)” value in test [5] amounted to 0.06. The “Anti-CD28 Fab signal (phage binding ELISA)” value in test [6] was determined as 1.38.
Take YCDGHSQEYIAKCL (Tested as clonal phage supernatant) [Phage-715]: the “Phage binding ELISA, Anti-CD28 Fab signal in the presence of CD28” value in test [3] turned out to be 0.07. For the same molecule, in test [4], the “Phage binding ELISA, Anti-CD28 Fab signal” value is 1.99.

B11: Phage-985 (peptide)
peptide: YCEGHLDMYVWKCL
modifications: cysteine pairing not given here; also: displayed fused to phage pIII protein, fusion end and linker not given here
notes: as for B1
B11: in test [1], the “Anti-CD28 Fab signal (phage binding ELISA)” value amounted to 1.56. The “Anti-CD28 Fab signal in the presence of CD28” value in test [2] came out at 0.08.
In the case of YCDGHLPQYMSKCL (Tested as clonal phage supernatant) [Phage-712], the “Phage binding ELISA, Anti-CD28 Fab signal in the presence of CD28” value in test [3] was determined as 0.1. For the same molecule, the “Phage binding ELISA, Anti-CD28 Fab signal” value in test [4] worked out at 2.
On the same counts, the results for YCDGHMPQYMSKCL (Tested as clonal phage supernatant) [Phage-716] are 0.08 and 1.98.

B12: Phage-992 (peptide)
peptide: YCDGHSQAHMQKCL
modifications: cysteine pairing not given here; also: displayed fused to phage pIII protein, fusion end and linker not given here
notes: as for B1
With B12, the “Anti-CD28 Fab signal (phage binding ELISA)” value in test [1] came to 1.55. In test [2], the “Anti-CD28 Fab signal in the presence of CD28” value amounted to 0.08.
Turning to YCAGHLPMYMHKCL (Tested as clonal phage supernatant) [Phage-714], the “Phage binding ELISA, Anti-CD28 Fab signal in the presence of CD28” value in test [3] stood at 0.18. Besides, the “Phage binding ELISA, Anti-CD28 Fab signal” value in test [4] turned out to be 1.99.

B13: Phage-988 (peptide)
peptide: YCDGHFLTYMTKCL
modifications: cysteine pairing not given here; also: displayed fused to phage pIII protein, fusion end and linker not given here
notes: as for B1
For B13, the “Anti-CD28 Fab signal (phage binding ELISA)” value in test [1] came to 1.56. Moreover, in test [2], the “Anti-CD28 Fab signal in the presence of CD28” value is 0.07.

B14: Phage-987 (peptide)
peptide: YCDGHSPLYMVKCL
modifications: cysteine pairing not given here; also: displayed fused to phage pIII protein, fusion end and linker not given here
notes: as for B1
Turning to B14, the “Anti-CD28 Fab signal (phage binding ELISA)” value in test [1] was 1.56. Besides, in test [2], the “Anti-CD28 Fab signal in the presence of CD28” value is 0.06.

B15: Phage-1076 (peptide)
peptide: YCEGHLDEYLQKCL
modifications: cysteine pairing not given here; also: displayed as fusion to phage pIII, linker not given here
Turning to B15, the “Anti-CD28 Fab signal in the presence of CD28 (phage binding ELISA)” value in test [5] is 0.07. Besides, the “Anti-CD28 Fab signal (phage binding ELISA)” value in test [6] came out at 1.38.
In the case of YCEGHLAEYMDKCL (Tested as clonal phage supernatant) [Phage-722], the “Phage binding ELISA, Anti-CD28 Fab signal in the presence of CD28” value in test [3] was 0.07. In addition, in test [4], the “Phage binding ELISA, Anti-CD28 Fab signal” value was 1.96.

B16: Phage-991 (peptide)
peptide: YCEGHTLEYMWKCL
modifications: cysteine pairing not given here; also: displayed fused to phage pIII protein, fusion end and linker not given here
notes: as for B1
Regarding B16, the “Anti-CD28 Fab signal (phage binding ELISA)” value in test [1] amounted to 1.55. Further, in test [2], the “Anti-CD28 Fab signal in the presence of CD28” value came to 0.33.
Take YCDGHLWEYMDKCL (Tested as clonal phage supernatant) [Phage-719]: the “Phage binding ELISA, Anti-CD28 Fab signal in the presence of CD28” value in test [3] stood at 0.06. Further, the “Phage binding ELISA, Anti-CD28 Fab signal” value in test [4] turned out to be 1.97.
For the molecule YCVGHLPQYMEKCL (Tested as clonal phage supernatant) [Phage-717], the “Phage binding ELISA, Anti-CD28 Fab signal in the presence of CD28” value in test [3] was 0.08. In test [4], the “Phage binding ELISA, Anti-CD28 Fab signal” value was 1.98.

B17: Phage-994 (peptide)
peptide: YCDGHLPVYMMKCL
modifications: cysteine pairing not given here; also: displayed fused to phage pIII protein, fusion end and linker not given here
notes: as for B1
As to B17, the “Anti-CD28 Fab signal (phage binding ELISA)” value in test [1] amounted to 1.55. In addition, the “Anti-CD28 Fab signal in the presence of CD28” value in test [2] was 0.07.
